Blank lines part the entries; values can stand above or below the binder they belong to.
Tests used:
gel filtration = biological target: the molecule itself; assay: gel filtration
keratin 10 helix 1B [1] = biological target: T1, keratin 10 helix 1B (human, UniProt P13645 195-296); assay: X-ray crystal structure, asymmetric unit
T1 construct: Single chain of the K1/K10-1B complex; His6 tag removed with thrombin before gel filtration, light scattering and crystallization; also called K10-1B; K10
Protocol: The final model of the K1^S233L/K10-1B mutant crystal asymmetric unit contained one K1-1B S233L and one K10-1B molecules. The final Ramachandran statistics were: residues in favorable regions, 99%; in allowed regions, 1%; in outlier regions, 0%. Electrostatics were calculated using PDB2PQR and Adaptive Poisson-Boltzmann Software (APBS). Structural analyses were performed using Coot, UCSF Chimera (Resource for Biocomputing, Visualization, and Informatics, University of California, San Francisco), WHAT IF, ESBRI, and PDBePISA (The European Bioinformatics Institute, European Molecular Biology Laboratory, UK). Figures were prepared using UCSF Chimera and Adobe Illustrator. Atomic coordinates and structure factors have been deposited in the Protein Data Bank under the accession code TBD.
Mutant K1/K10-1B (22.8 mg/ml) in 100 mM Tris-HCl buffer (pH 7.4) containing 200 mM NaCl was crystallized using 100 mM Tris buffer (pH 8.5) containing 1.5M ammonium sulfate and 12% glycerol. Crystals were soaked 1-3 min in a cryoprotectant solution containing 27% glycerol in mother liquor prior to flash-freezing in liquid nitrogen. One native data set on a single crystal was collected (λ=0.9795 Å). The native crystal belonged to the hexagonal space group P6 22 (cell dimensions: a=93.29 Å, b=93.29 Å, c=124.74 Å, α=β=90, γ=120). […]

keratin 10 helix 1B [2] = biological target: T1, keratin 10 helix 1B; assay: K1 knob mutants with K10-1B
[3] = biological target: the molecule itself; assay: in vitro filament assembly, negative-stain electron microscopy
Protocol: Filament assembly was terminated after 10 min by adding stop buffer (0.2% glutaraldehyde, 20 mM KCl, 0.7 mM NaHPO). Filament samples were immediately applied to a Carbon type B-400 mesh-Copper grid charged with Pelco easiGlow (Ted Pella, Redding, Calif.) at 25 mA for 30s, and negatively stained using 2% aqueous uranyl acetate. Images were captured with a Talos L120C Electron Microscope from FEI (Hillsboro, Oreg.).
Protein production and purification: Full-length wild-type K1, K10, K8, K18, and vimentin constructs in pET-21a(+) or pET-24a(+) based plasmids are used. K1, K8, and vimentin knob mutants (both individual [FA, LA] and double [FLAA] residue mutants) are also used. K10 is expressed in E. coli BL21(DE3)pLysS cells at 20° C. for 72 hours using an autoinduction method. Expression of all other keratins and vimentins occur in E. coli BL21(DE3) cells using LB at 37° C. for 3 hours with 1 mM IPTG for induction. […]
Electron microscopy: Filament samples are immediately applied to a Carbon type B-400 mesh-Copper grid charged with Pelco easiGlow (Ted Pella, Redding, Calif.) at 25 mA for 30s, and negatively stained using 2% aqueous uranyl acetate. […] Images are analyzed for the number, length, width, and shape of filamentous structures formed at each timepoint to evaluate the dynamics of IF assembly in vitro for both wild-type and knob mutant proteins.

B1: K1-L318A/10-1B mutant heterodimer (other)
chain 1: NLEPYFESFINNLRRRVDQLKSDQSRLDSELKNMQDMVEDYRNKYEDEINKRTNAENEFVTIKKDVDGAYMTKVDLQAKLDNLQQEIDFLTAAYQAELSQMQTQIS
chain 2: not shown
notes: also called L318A^K1 (LA); K1-L318A/K10-1B
binding result (gel filtration): binds

B2: K1-F314A/10-1B mutant heterodimer (other)
chain 1: NLEPYFESFINNLRRRVDQLKSDQSRLDSELKNMQDMVEDYRNKYEDEINKRTNAENEFVTIKKDVDGAYMTKVDLQAKLDNLQQEIDALTALYQAELSQMQTQIS
chain 2: not shown
notes: also called F314A^K1 (FA); K1-F314A/K10-1B
binding result (gel filtration): no binding

B3: K1 F314A+L318A (FLAA)/K10-1B double mutant heterodimer (other)
chain 1: NLEPYFESFINNLRRRVDQLKSDQSRLDSELKNMQDMVEDYRNKYEDEINKRTNAENEFVTIKKDVDGAYMTKVDLQAKLDNLQQEIDALTAAYQAELSQMQTQIS
chain 2: not shown
notes: also called F314A^K1+L318A^K1
binding result (gel filtration): no binding

binding result (keratin 10 helix 1B [1]): binds
B4: keratin 1 helix 1B S233L (other)
chain: NLEPYFELFINNLRRRVDQLKSDQSRLDSELKNMQDMVEDYRNKYEDEINKRTNAENEFVTIKKDVDGAYMTKVDLQAKLDNLQQEIDFLTALYQAELSQMQTQIS
notes: Single chain of the mutant complex; also called K1^S233L-1B; K1-1B S233L

binding result (keratin 10 helix 1B [2]): binds
B5: keratin 1 helix 1B F314A+L318A (other)
chain: NLEPYFESFINNLRRRVDQLKSDQSRLDSELKNMQDMVEDYRNKYEDEINKRTNAENEFVTIKKDVDGAYMTKVDLQAKLDNLQQEIDALTAAYQAELSQMQTQIS
notes: Single chain; also called K1-1B mutant F314A+L318A; FLAA

binding result (keratin 10 helix 1B [2]): binds
B6: keratin 1 helix 1B L318A (other)
chain: NLEPYFESFINNLRRRVDQLKSDQSRLDSELKNMQDMVEDYRNKYEDEINKRTNAENEFVTIKKDVDGAYMTKVDLQAKLDNLQQEIDFLTAAYQAELSQMQTQIS
notes: Single chain; also called K1-1B mutant L318A; LA

B7: full-length wild-type K1/K10 heterodimeric complex (other)
chain 1: MSRQFSSRSGYRSGGGFSSGSAGIINYQRRTTSSSTRRSGGGGGRFSSCGGGGGSFGAGGGFGSRSLVNLGGSKSISISVARGGGRGSGFGGGYGGGGFGGGGFGGGGFGGGGIGGGGFGGFGSGGGGFGGGGFGGGGYGGGYGPVCPPGGIQEVTINQSLLQPLNVEIDPEIQKVKSREREQIKSLNNQFASFIDKVRFLEQQNQVLQTKWELLQQVDTSTRTHNLEPYFESFINNLRRRVDQLKSDQSRLDSELKNMQDMVEDYRNKYEDEINKRTNAENEFVTIKKDVDGAYMTKVDLQAKLDNLQQEIDFLTALYQAELSQMQTQISETNVILSMDNNRSLDLDSIIAEVKAQNEDIAQKSKAEAESLYQSKYEELQITAGRHGDSVRNSKIEISELNRVIQRLRSEIDNVKKQISNLQQSISDAEQRGENALKDAKNKLNDLEDALQQAKEDLARLLRDYQELMNTKLALDLEIATYRTLLEGEESRMSGECAPNVSVSVSTSHTTISGGGSRGGGGGGYGSGGSSYGSGGGSYGSGGGGGGGRGSYGSGGSSYGSGGGSYGSGGGGGGHGSYGSGSSSGGYRGGSGGGGGGSSGGRGSGGGSSGGSIGGRGSSSGGVKSSGGSSSVRFVSTTYSGVTR
chain 2: MSVRYSSSKHYSSSRSGGGGGGGGCGGGGGVSSLRISSSKGSLGGGFSSGGFSGGSFSRGSSGGGCFGGSSGGYGGLGGFGGGSFRGSYGSSSFGGSYGGIFGGGSFGGGSFGGGSFGGGGFGGGGFGGGFGGGFGGDGGLLSGNEKVTMQNLNDRLASYLDKVRALEESNYELEGKIKEWYEKHGNSHQGEPRDYSKYYKTIDDLKNQILNLTTDNANILLQIDNARLAADDFRLKYENEVALRQSVEADINGLRRVLDELTLTKADLEMQIESLTEELAYLKKNHEEEMKDLRNVSTGDVNVEMNAAPGVDLTQLLNNMRSQYEQLAEQNRKDAEAWFNEKSKELTTEIDNNIEQISSYKSEITELRRNVQALEIELQSQLALKQSLEASLAETEGRYCVQLSQIQAQISALEEQLQQIRAETECQNTEYQQLLDIKIRLENEIQTYRSLLEGEGSSGGGGRGGGSFGGGYGGGSSGGGSSGGGHGGGHGGSSGGGYGGGSSGGGSSGGGYGGGSSSGGHGGSSSGGYGGGSSGGGGGGYGGGSSGGGSSSGGGYGGGSSSGGHKSSSSGSVGESSSKGPRY
notes: also called WT K1/K10
binding result [3]: binds

B8: full-length wild-type K8/K18 heterodimeric complex (other, human)
chain 1: MSIRVTQKSYKVSTSGPRAFSSRSYTSGPGSRISSSSFSRVGSSNFRGGLGGGYGGASGMGGITAVTVNQSLLSPLVLEVDPNIQAVRTQEKEQIKTLNNKFASFIDKVRFLEQQNKMLETKWSLLQQQKTARSNMDNMFESYINNLRRQLETLGQEKLKLEAELGNMQGLVEDFKNKYEDEINKRTEMENEFVLIKKDVDEAYMNKVELESRLEGLTDEINFLRQLYEEEIRELQSQISDTSVVLSMDNSRSLDMDSIIAEVKAQYEDIANRSRAEAESMYQIKYEELQSLAGKHGDDLRRTKTEISEMNRNISRLQAEIEGLKGQRASLEAAIADAEQRGELAIKDANAKLSELEAALQRAKQDMARQLREYQELMNVKLALDIEIATYRKLLEGEESRLESGMQNMSIHTKTTSGYAGGLSSAYGGLTSPGLSYSLGSSFGSGAGSSSFSRTSSSRAVVVKKIETRDGKLVSESSDVLPK
chain 2: MSFTTRSTFSTNYRSLGSVQAPSYGARPVSSAASVYAGAGGSGSRISVSRSTSFRGGMGSGGLATGIAGGLAGMGGIQNEKETMQSLNDRLASYLDRVRSLETENRRLESKIREHLEKKGPQVRDWSHYFKIIEDLRAQIFANTVDNARIVLQIDNARLAADDFRVKYETELAMRQSVENDIHGLRKVIDDTNITRLQLETEIEALKEELLFMKKNHEEEVKGLQAQIASSGLTVEVDAPKSQDLAKIMADIRAQYDELARKNREELDKYWSQQIEESTTVVTTQSAEVGAAETTLTELRRTVQSLEIDLDSMRNLKASLENSLREVEARYALQMEQLNGILLHLESELAQTRAEGQRQAQEYEALLNIKVKLEAEIATYRRLLEDGEDFNLGDALDSSNSMQTIQKTTTRRIVDGKVVSETNDTKVLRH
notes: also called K8/18
binding result [3]: binds

From patent publication US20210340531A1 (YALE UNIVERSITY, published 2021)
